The values below come from patent publication US20150037340A1 (PEIRRE FABRE MEDICAMENT, published 2015).

The target of test [1] is T1, human protein Axl (cellular form on the cell surface) (human, UniProt P30530 26-894).
T1 construct: also called Axl receptor; membrane Axl receptor
T1 sequence: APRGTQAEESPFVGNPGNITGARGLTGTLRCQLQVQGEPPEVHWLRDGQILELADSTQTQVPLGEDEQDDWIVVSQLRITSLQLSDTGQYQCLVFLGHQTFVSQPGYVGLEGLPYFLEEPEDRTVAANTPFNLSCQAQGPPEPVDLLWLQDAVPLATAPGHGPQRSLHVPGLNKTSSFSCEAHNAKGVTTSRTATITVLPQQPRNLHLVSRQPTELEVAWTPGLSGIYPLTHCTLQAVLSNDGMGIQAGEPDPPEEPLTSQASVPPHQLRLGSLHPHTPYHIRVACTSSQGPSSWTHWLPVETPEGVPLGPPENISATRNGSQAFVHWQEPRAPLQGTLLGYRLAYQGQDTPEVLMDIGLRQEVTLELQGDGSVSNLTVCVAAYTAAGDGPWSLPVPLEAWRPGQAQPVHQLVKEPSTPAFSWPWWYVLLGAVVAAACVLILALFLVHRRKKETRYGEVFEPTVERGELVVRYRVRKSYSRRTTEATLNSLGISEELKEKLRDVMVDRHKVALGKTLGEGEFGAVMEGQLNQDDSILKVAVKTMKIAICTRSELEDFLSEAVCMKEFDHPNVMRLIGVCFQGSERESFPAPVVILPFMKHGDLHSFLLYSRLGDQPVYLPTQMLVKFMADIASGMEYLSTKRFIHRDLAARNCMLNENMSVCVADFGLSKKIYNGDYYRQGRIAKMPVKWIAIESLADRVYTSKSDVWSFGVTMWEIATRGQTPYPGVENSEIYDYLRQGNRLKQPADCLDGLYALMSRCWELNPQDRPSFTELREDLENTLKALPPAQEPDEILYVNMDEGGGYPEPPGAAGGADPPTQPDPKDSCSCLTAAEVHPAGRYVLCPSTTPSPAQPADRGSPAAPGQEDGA
As to the kind of experiment: flow cytometry on SN12C cells, goat anti-mouse Alexa 488. As to the method:
(§1) For cell surface binding studies, two fold serial dilutions of a 10 μg/m (6.66 10⁻⁸ M) primary antibody solution (1613F12, MAB154 antibody or mIgG1 isotype control 9G4 Mab) are prepared and are applied on 2.10⁵ cells for 20 min at 4° C. After 3 washes in phosphate-buffered saline (PBS) supplemented with 1% BSA and 0.01% NaN₃, cells were incubated with secondary antibody Goat anti-mouse Alexa 488 (1/500° dilution) for 20 minutes at 4° C. After 3 additional washes in PBS supplemented with 1% BSA and 0.1% NaN₃, cells were analyzed by FACS (Facscalibur, Becton-Dickinson). At least 5000 cells were assessed to calculate the mean value of fluorescence intensity.
A general note: In flow cytometry, cells or beads pass a laser one at a time.

The target in test [2] is T1, human protein Axl (cellular form on the …). As to the kind of experiment: flow cytometry on MDA-MB-231 cells, goat anti-mouse Alexa 488. As to the method: as §1
Test [3] deals with T2, recombinant human Axl-Fc (R and D Systems, cat No 154-AL / 154AL/CF) (human, UniProt P30530 26-451).
T2 construct: Bought protein; also called rhAxl-Fc; rh Axl-Fc protein; not shown: human IgG Fc portion (detected with anti-human IgG Fc)
T2 sequence: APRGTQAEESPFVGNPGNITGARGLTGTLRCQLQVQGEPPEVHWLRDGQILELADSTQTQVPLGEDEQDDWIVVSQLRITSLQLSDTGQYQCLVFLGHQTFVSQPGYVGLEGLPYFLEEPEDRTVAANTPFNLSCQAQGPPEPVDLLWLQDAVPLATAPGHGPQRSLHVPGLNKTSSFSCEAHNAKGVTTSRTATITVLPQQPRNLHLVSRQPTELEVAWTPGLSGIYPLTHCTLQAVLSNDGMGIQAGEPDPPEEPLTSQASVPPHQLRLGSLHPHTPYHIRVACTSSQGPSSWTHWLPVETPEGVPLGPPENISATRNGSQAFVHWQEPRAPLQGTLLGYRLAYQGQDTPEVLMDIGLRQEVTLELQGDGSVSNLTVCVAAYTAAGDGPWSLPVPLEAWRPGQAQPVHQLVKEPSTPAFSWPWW
As to the kind of experiment: ELISA on coated rhAxl-Fc, detection with goat anti-mouse IgG-HRP. As for the experimental part:
Then ½ serial dilutions were done over 12 columns. Plates were washed and a goat anti-mouse (Jackson) specific IgG-HRP was added for 1 h at 37° C. Reaction development was performed using the TMB substrate solution. […] Coating controls were performed in presence of a goat anti-human IgG Fc polyclonal serum labelled with HRP (Jackson, ref 109-035-098) and/or in presence of a HRP-coupled anti-Histidine antibody (R and D Systems, ref: MAB050H). Results are represented in FIGS. 2A, 2B and 2C, respectively.
(In an ELISA, binding on a coated surface is turned into a signal by an enzyme label.)

For test [4], the target named is T3, human extracellular domain (ECD) of Axl, His-tagged (pCEP[AXL]His6, produced in HEK293E) (human, UniProt P30530 26-451).
T3 construct: also called human Axl ECD; rhAxl ECD; not shown: His6 tag
T3 sequence: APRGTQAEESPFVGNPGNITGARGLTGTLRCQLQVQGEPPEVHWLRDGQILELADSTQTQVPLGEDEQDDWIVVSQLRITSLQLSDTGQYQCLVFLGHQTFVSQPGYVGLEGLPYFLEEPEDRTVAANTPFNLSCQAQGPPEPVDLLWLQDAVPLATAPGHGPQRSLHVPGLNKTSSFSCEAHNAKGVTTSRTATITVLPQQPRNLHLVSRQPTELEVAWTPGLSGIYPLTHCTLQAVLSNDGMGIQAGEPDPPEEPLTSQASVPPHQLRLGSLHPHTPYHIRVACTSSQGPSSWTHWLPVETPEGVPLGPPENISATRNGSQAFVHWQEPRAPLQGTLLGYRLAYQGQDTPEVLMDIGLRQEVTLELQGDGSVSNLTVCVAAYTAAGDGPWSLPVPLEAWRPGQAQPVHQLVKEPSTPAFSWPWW
As to the kind of experiment: SPR (Biacore X), antibody captured on CM5 chip, Axl ECD as analyte, 1:1 Langmuir model. As to the method:
Briefly, the experiments were realized using a sensor chip CM5 as the biosensor. Rabbit IgGs were immobilized on the flow cells 1 and 2 (FC 1 and FC2) of a CM5 sensor chip at a level of 9300-10000 response units (RU) using amine coupling chemistry to capture antibodies.
Binding is evaluated using multiple cycles. Each cycle of measure is performed using a flow rate of 30 μl/imin in a HBS-EP buffer. Then the Axl antibody to test is captured on the chip for 1 min on FC2 only to reach a mean capture value of 311.8 RU (SD=5.1 RU) for the 1613F12. The analyte (Axl ECD antigen) is injected starting at 200 nM and using two-fold serial dilutions to measure rough ka and kd in real time.
At the end of each cycle, the surfaces are regenerated by injecting a 10 mM glycine hydrochloride pH1.5 solution to eliminate the antibody-antigen complexes and the capture antibody as well. The considered signal corresponds to the difference of the signals observed between FC1 and FC2 (FC2-FC1). Association rates (ka) and dissociation rates (kd) were calculated using a one-to-one Langmuir binding model. The equilibrium dissociation constant (KD) is determined as the […]. The experimental values were analyzed in the Biaevaluation software version 3.0. A χ2 analysis will be performed to assess the accuracy of the data.

B1: 1613F12 antibody (murine form) (antibody, V domains shown)
VH: EVHLQQSGAELVKPGASVKLSCTASGFNIRDTYIHWVKQRPEQGLEWIGRLDPANGHTKYGPNFQGRATMTSDTSSNTAYLQLSSLTSEDTAVYYCARGAYYYGSSGLFYFDYWGQGTTLSVSS
VL: DVQITQSPSYLATSPGETITINCRASKSISKYLAWYQEKPGKTNKLLIYSGSTLQSGVPSRFSGSGSGTDFTLTISSLEPEDFAMYFCQQHHEYPLTFGAGTELELK
notes: Whole murine monoclonal antibody purified from a hybridoma; a murine IgG1 (9G4) serves as its isotype control; also called m1613F12; monoclonal antibody 1613F12 derived from the hybridoma I-4505
The EC50 (read off the curve) is the concentration giving half of the maximal effect. One may read the Kd as the constant that tells how readily two partners part at equilibrium. A higher Kd goes with lower affinity. By koff is commonly meant the rate constant with which the complex falls apart. The kon is the second-order rate constant of association. Consider B1, for which the 50% effective concentration (EC50 (read off the curve)) in test [1], in test [2] and in test [3] was about 1 nM each time. For the same molecule, binding in test [4] was characterised by a dissociation constant (Kd) of 2.29 nM. In test [4], this molecule yielded a dissociation rate constant (koff) of 0.000242 s⁻¹. The molecule also showed a kon in test [4] of 106000 M⁻¹ s⁻¹.
